# Experimental data from paper PMC5871717, “Transposase-DNA Complex Structures Reveal Mechanisms for Conjugative Transposition of Antibiotic Resistance” (Cell, 2018).
# Substitutions are numbered along the chain they refer to. In names and notes the source's numbering stands.
# T1: Int82N(R225K) (Enterococcus faecalis, UniProt Q7BP35 82-397, R225K)
# T1 sequence: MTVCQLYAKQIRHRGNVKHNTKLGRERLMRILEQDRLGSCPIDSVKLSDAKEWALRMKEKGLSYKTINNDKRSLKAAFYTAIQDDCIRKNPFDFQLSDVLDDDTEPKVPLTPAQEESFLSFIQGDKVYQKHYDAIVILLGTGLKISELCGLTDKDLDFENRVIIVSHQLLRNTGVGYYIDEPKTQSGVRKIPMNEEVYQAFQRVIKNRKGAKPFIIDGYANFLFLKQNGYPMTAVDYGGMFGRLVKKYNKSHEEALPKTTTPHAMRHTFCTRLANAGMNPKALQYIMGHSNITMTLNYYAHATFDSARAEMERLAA
# T2: Int82N (Enterococcus faecalis, UniProt Q7BP35 82-397)
# T2 sequence: T1 sequence with K144R
# T3: Int82N(Y379F) (Enterococcus faecalis, UniProt Q7BP35 82-397, Y379F)
# T3 sequence: T1 sequence with K144R, Y298F
# T4: Int82N (HJ-bound tetramer) (Enterococcus faecalis, UniProt Q7BP35 82-397)
# T4 sequence: T1 sequence with K144R
# B1: CI5 (dsDNA)
# DNA 1: TGCGATAACCTAAAATTTTATAGCAAAATTATATGGGATTTTAG
# DNA 2: CTAAAATCCCATATAATTTTGCTATAAAATTTTAGGTTATCGCT
# B2: CI5-F (dsDNA)
# DNA 1: B1 DNA 1 with A20T, C24A
# DNA 2: B1 DNA 2 with G21C, T25A
# modifications: 2-aminopurine (written A) at position 24 of top and 25 of bottom strand
# B3: CI6a (dsDNA)
# DNA 1: TGCGATAACCTAAAATTTTATTTTCAAAATTATATGGGATTTTAG
# DNA 2: CTAAAATCCCATATAATTTTGAAAATAAAATTTTAGGTTATCGCT
# B4: CI6b (dsDNA)
# DNA 1: B3 DNA 1 with A20C, T21C, T22C, C25T
# DNA 2: B3 DNA 2 with G21A, A24G, A25G, T26G
# B5: IRR half-site (dsDNA)
# DNA 1: ATTTTCAAAATTATGGGATTTTAG
# DNA 2: CTAAAATCCCATATAATTTT
# B6: Int^82N(R225K), catalytic mutant of Tn1549 Int aa 82–397 (domain or fragment, Enterococcus faecalis)
# chain: SMTVCQLYAKQIRHRGNVKHNTKLGRERLMRILEQDRLGSCPIDSVKLSDAKEWALRMKEKGLSYKTINNDKRSLKAAFYTAIQDDCIRKNPFDFQLSDVLDDDTEPKVPLTPAQEESFLSFIQGDKVYQKHYDAIVILLGTGLKISELCGLTDKDLDFENRVIIVSHQLLRNTGVGYYIDEPKTQSGVRKIPMNEEVYQAFQRVIKNRKGAKPFIIDGYANFLFLKQNGYPMTAVDYGGMFGRLVKKYNKSHEEALPKTTTPHAMRHTFCTRLANAGMNPKALQYIMGHSNITMTLNYYAHATFDSARAEMERLAA
# notes: additional residue S81 left after SenP2 cleavage of the purification tags; Tn1549 integrase (Int), Enterococcus faecalis, GenBank AAF72368.1, aa 82-397, with R225K; Crystallised with CI5, CI6a and CI6b DNA; also called R225K Int^82N; not shown: His6, N-terminal, cleaved; SUMO, N-terminal, cleaved
# B7: Tn1549 Int variant lacking the AB domain (aa 82–397; Int^82N), wild type (domain or fragment, Enterococcus faecalis)
# chain: B6 chain with K145R
# notes: additional residue S81 left after SenP2 cleavage of the purification tags; Tn1549 integrase (Int), Enterococcus faecalis, GenBank AAF72368.1, aa 82-397 (CB and CAT domains, no AB domain); full length is aa 1-397; Codon-optimised synthetic gene in pETM28 (BamHI/XhoI); also called Int^82N(wt); Tn1549 integrase; not shown: His6, N-terminal, cleaved; SUMO, N-terminal, cleaved
# B8: HJ (EMSA) (structured_DNA)
# DNA 1: AGTGAACAGCCCACAAAATTTTGAAAATAAAATTTTAGGTTATCGCTGGCTAGTCCATGC
# DNA 2: GCATGGACTAGCCAGCGATAACCTAAAATTTTATTAATAAAATTATATGGGATTT
# DNA 3: CCAAATTTTTTACCGGGTTTTGAATTCAAAATTTTGTGGGCTGTTCACT
# DNA 4: AAATCCCATATAATTTTATTTTCAAAACCCGGTAAAAAATTTGG
# Key:
# Int82N(R225K) = target: T1, Int82N(R225K); test: X-ray crystallography; 2 protein:1 DNA; […] (50 mM HEPES pH 7.5, 250 mM NaCl, 5 mM DTT, 10% glycerol), […]; conditions: protein: recombinant, tags: 6xHis-SUMO removed by SenP2, extra N-terminal S81, chain copies: 2, terminal T/T mismatch as printed
# 390C = 390C (Enterococcus faecalis, UniProt Q7BP35 82-390); test: EMSA; monomeric and higher oligomers; […] (50 mM HEPES pH 7.5, 250 mM NaCl, 5 mM DTT, 10% glycerol), […]; conditions: protein: recombinant; tags: 6xHis-SUMO removed by SenP2; label: 5'-32P in EMSA; none in crystals; 44 bp; terminal T/T mismatch as printed
# 381C = 381C (Enterococcus faecalis, UniProt Q7BP35 82-381); test: as above; conditions: protein: recombinant; tags: 6xHis-SUMO removed by SenP2; label: 5'-32P in EMSA; none in crystals; 44 bp; terminal T/T mismatch as printed
# Int82N [1] = target: T2, Int82N; test: X-ray crystallography; wild-type catalytic residues; […] (50 mM HEPES pH 7.5, 250 mM NaCl, 5 mM DTT, 10% glycerol), […]; conditions: protein: recombinant; tags: 6xHis-SUMO removed by SenP2; extra N-terminal S81; chain copies: 2; label: 5'-32P in EMSA; none in crystals; 44 bp; terminal T/T mismatch as printed
# Int82N [2] = target: T2, Int82N; test: 2AP fluorescence; base-flipping readout; […] (50 mM HEPES pH 7.5, 250 mM NaCl, 5 mM DTT, 10% glycerol), […]; conditions: protein: recombinant; tags: 6xHis-SUMO removed by SenP2; extra N-terminal S81; chain copies: 2; label: 2AP; 44 nt strands; 2AP opposite C at one flipped base; terminal T/T mismatch
# Int82N [3] = target: T2, Int82N; test: EMSA; 2:1 complex; similar affinity to CI5; […] (50 mM HEPES pH 7.5, 250 mM NaCl, 5 mM DTT, 10% glycerol), […]; conditions: protein: recombinant; tags: 6xHis-SUMO removed by SenP2; extra N-terminal S81; chain copies: 2; 45 bp; terminal T/T mismatch as printed
# Int82N(Y379F) = target: T3, Int82N(Y379F); test: X-ray crystallography; […] (50 mM HEPES pH 7.5, 250 mM NaCl, 5 mM DTT, 10% glycerol), […]; conditions: protein: recombinant; tags: 6xHis-SUMO removed by SenP2; 5' overhang 6 nt
# [4] = target: the molecule itself; test: crystal structure; Int^82N (R225K or wild type) with 44 bp CI5 dsDNA at 2:1 molar ratio in Buffer C; vapor diffusion at 20°C; 2.8 Å
# [5] = target: the molecule itself; test: SEC; analytical size exclusion chromatography on Superdex 200 10/300, proteins without DNA
# [6] = target: T4, Int82N (HJ-bound tetramer); test: EMSA; 4:1 protein:HJ; […] (50 mM HEPES pH 7.5, 250 mM NaCl, 5 mM DTT, 10% glycerol), […]; conditions: protein: recombinant; tags: 6xHis-SUMO removed by SenP2; chain copies: 4; four-way junction of 4 strands
binder,measurement,setting,value
B1,binding result,"Int82N(R225K); label: 5'-32P in EMSA, none in crystals, 44 bp",binds
same,binding result,390C,binds
same,binding result,381C,binds
same,binding result,Int82N [1],binds
B2,binding signal,Int82N [2],~4.6 fold 2AP fluorescence increase
B3,binding result,Int82N(R225K); 45 bp,binds
same,binding result,Int82N [3],binds
B4,binding result,Int82N(R225K); 45 bp,binds
same,binding result,Int82N [3],binds
B5,binding result,Int82N(Y379F),binds
B6,binding result,[4],binds
B7,stoichiometry N,[5],2
B8,binding result,[6],binds
